Patent US20220160843A1 (priority 2019, published 2022)

B1: GN150: Native lysin, WP_034684053.1/VanY, SEQ ID NO: 19 (protein, listed as Acinetobacter sp.)
chain: MSFKLGKRSLSNLEGVHPDLIKVVKRAIELTECDFTVTEGLRSKERQAQLLKEKKTTTSNSRHLTGHAVDLAAWVNNTVSWDWKYYYQIADAMKKAASELNVSIDWGGDWKKFKDGPHFELTWSKYPIKGAS
B2: GN156: Modified GN4, addition of N-terminal peptide GPRRPRRPGRRAPV, SEQ ID NO: 6 (protein)
chain: GPRRPRRPGRRAPVMRTSQRGIDLIKSFEGLRLSAYQDSVGVWTIGYGTTRGVTRYMTITVEQAERMLSNDIQRFEPELDRLAKVPLNQNQWDALMSFVYNLGAANLASSTLLKLLNKGDYQGAADQFPRWVNAGGKRLDGLVKRRAAERALFLEPLS
B3: GN4: Native lysin, YP_002284361.1/Lysozyme, SEQ ID NO: 3; first disclosed in WO/2017/049233 (protein)
chain: MRTSQRGIDLIKSFEGLRLSAYQDSVGVWTIGYGTTRGVTRYMTITVEQAERMLSNDIQRFEPELDRLAKVPLNQNQWDALMSFVYNLGAANLASSTLLKLLNKGDYQGAADQFPRWVNAGGKRLDGLVKRRAAERALFLEPLS
modifications: Pseudomonas phage PAJU2

Tests used:
P. aeruginosa [1] = assay: Minimal inhibitory concentration (MIC), modified CLSI broth microdilution in CAA or CAA/HuS; type: cell-based, Pseudomonas aeruginosa; conditions: for MIC (μg/mL) in CAA: CAA media
[2] = tested on: P. aeruginosa strain ATCC 17647; assay: Minimal Biofilm Eradicating Concentration (MBEC), Calgary Biofilm Device; type: cell-based, Pseudomonas aeruginosa; conditions: 24 h biofilm, 24 h treatment; minimum concentration removing >95% of biofilm biomass (crystal violet)
Source text: All samples were examined in triplicate.

P. aeruginosa [3] = assay: Time-kill assay of GN lysin activity; type: cell-based, Pseudomonas aeruginosa; conditions: for Log10 CFU/mL T = 3 hr / Log10 CFU/mL T = l hr: lysin 10 μg/mL, T = 0 7.8; for Log10 CFU/mL T = 3 hr: buffer control 7.2, limit of detection 3.7; for Log10 CFU/mL T = l hr: buffer control 7.7
Description: All treatments were incubated at 37° C. with aeration.

[4] = tested on: carbapenem-resistant clinical strain, WC-452; assay: Checkerboard assay to examine synergy with antibiotics in CAA/HuS; type: cell-based, P. aeruginosa; conditions: for FICI, Amikacin: lysin + amikacin; for FICI, Azithromycin: lysin + azithromycin; for FICI, Aztreonam: lysin + aztreonam; for FICI, Ciprofloxacin: lysin + ciprofloxacin; for FICI, Colistin: lysin + colistin; for FICI, Fosfomycin: lysin + fosfomycin; for FICI, Gentamicin: lysin + gentamicin; for FICI, Imipenem: lysin + imipenem; for FICI, Piperacillin: lysin + piperacillin; for FICI, Rifampicin: lysin + rifampicin; for FICI, Tobramycin: lysin + tobramycin
Description: Fractional inhibitor concentration index (FICI) values were determined for all combinations; values of <0.5 indicate synergy.
The checkerboard assays is based on a modification of the CLSI method for MIC determination by broth microdilution (26, 29). Checkerboards were constructed by first preparing columns of a 96-well polypropylene microtiter plate, in which each well had the same amount of antibiotic diluted 2-fold along the horizontal axis. […] Summation fractional inhibitory concentrations (ΣFICs) were calculated for each drug and the minimum ΣFIC value (ΣFICmin) was used to determine synergy. ΣFICs were calculated as follows: ΣFIC=FIC A+FIC B, where FIC A is the MIC of each antibiotic in the combination/MIC of each antibiotic alone, and FIC B is the MIC of each GN lysin in the combination/MIC of each GN lysin alone. The combination is considered synergistic when the ΣFIC is ≤0.5, strongly additive when the ΣFIC is >0.5 to <1, additive with the ΣFIC is 1−<2, and antagonistic when the ΣFIC is ≥2.

[5] = CAA supplemented with 25% human serum
[6] = CAA/HuS, ‡ indicates bactericidal activity
[7] = HEPES buffer, ‡ indicates bactericidal activity

Row | Molecule | MIC (μg/mL) in CAA (P. aeruginosa [1]) [µg/mL] | MIC (μg/mL in CAA/HuS) (P. aeruginosa [1]; [5]) [µg/mL] | MBEC [2] [µg/mL] | Log10 CFU/mL T = 3 hr (P. aeruginosa [3]; [6]) | Log10 CFU/mL T = l hr (P. aeruginosa [3]; CAA/HuS) [Log10 CFU/mL] | Log10 CFU/mL T = 3 hr (P. aeruginosa [3]; [7]) | Log10 CFU/mL T = l hr (P. aeruginosa [3]; [7]) [Log10 CFU/mL] | synergy with antibiotics in the checkerboard assay [4] | FICI, Amikacin [4] | FICI, Azithromycin [4] | FICI, Aztreonam [4] | FICI, Ciprofloxacin [4] | FICI, Colistin [4] | FICI, Fosfomycin [4] | FICI, Gentamicin [4] | FICI, Imipenem [4] | FICI, Piperacillin [4] | FICI, Rifampicin [4] | FICI, Tobramycin [4] | also measured
1 | B1 | 2 | 32 | 0.25 | <3.7‡ Log10 CFU/mL | 6.0 | <3.7‡ Log10 CFU/mL | 5.7 | synergize with a range of antibiotics | 0.313 | 0.125 | 0.188 | 0.250 | 0.094 | 0.375 | 0.375 | 0.375 | 0.500 | 0.094 | 0.500 | bactericidal activity in the time-kill assay format (P. aeruginosa [3]; 3-hour timepoint, 10 μg/mL, in either CAA/HuS or HEPES buffer): bactericidal activity
2 | B2 | 32 | 2 | 0.5 | <3.7‡ Log10 CFU/mL | 5.7 | <3.7‡ Log10 CFU/mL | 5.7 |  |  |  |  |  |  |  |  |  |  |  |  | 
3 | B3 | 64 | 16 | 1 | <3.7‡ Log10 CFU/mL | 6.0 | <3.7‡ Log10 CFU/mL | 5.7 | synergize with a range of antibiotics | 0.531 | 0.094 | 0.156 | 0.250 | 0.156 | 0.250 | 0.375 | 0.125 | 0.313 | 0.156 | 0.375 | MIC value in CAA/HuS (P. aeruginosa [1]; [5]): 16 µg/mL
